In patent US8202973B2, “Method for the production of vitamin K-dependent proteins” (Novo Nordisk Health Care AG, priority 2000, dated 2012):

test system: CHO-K1 cells; assay: FVII expression of CHO-K1 cells coexpressing FVII and a free FVII propeptide; format: cell-based; conditions: pools of CHO-K1 transfectants, pLN174 plus FVII propeptide in pcDNA3.1+; control with empty vector approximately 1 pg/cell/day
Protocol: CHO K1 cells (ATCC CCI61) were transfected with equal amounts of pLN174 and pLN329 with the Fugene6 method (Boehriner-Mannheim). Transfectants were selected by the addition of methotrexate to 1 μM and G-418 to 0.45 mg/ml. The pool of transfectants were cloned by limiting dilution and FVII expression from the clones was measured.
CHO-K1 cells were transfected with pLN174 and 1) empty pcDNA3.1+ vector or 2) FVII propeptide in pcDNA3.1+, as described in Example 1. Pools of transfectants were analysed for FVII expression and cell numbers. The FVII yields pr. cell pr. 24 hours are outlined in FIG. 3.

For “propeptide of FVII, AVFVTQEEAHGVLHRRRR (SEQ ID NO:7); expressed free from plasmid pLN329 (listed as Homo sapiens)”, the “FVII yields pr. cell pr. 24 hours” value was ~4 pg/cell/day.

biological target: T1, gamma-glutamyl carboxylase (Homo sapiens, UniProt P38435); assay: not given; conditions: free propeptide of vitamin K-dependent protein, positions -18 to -1; cited from earlier work
T1 sequence (P38435 1-758): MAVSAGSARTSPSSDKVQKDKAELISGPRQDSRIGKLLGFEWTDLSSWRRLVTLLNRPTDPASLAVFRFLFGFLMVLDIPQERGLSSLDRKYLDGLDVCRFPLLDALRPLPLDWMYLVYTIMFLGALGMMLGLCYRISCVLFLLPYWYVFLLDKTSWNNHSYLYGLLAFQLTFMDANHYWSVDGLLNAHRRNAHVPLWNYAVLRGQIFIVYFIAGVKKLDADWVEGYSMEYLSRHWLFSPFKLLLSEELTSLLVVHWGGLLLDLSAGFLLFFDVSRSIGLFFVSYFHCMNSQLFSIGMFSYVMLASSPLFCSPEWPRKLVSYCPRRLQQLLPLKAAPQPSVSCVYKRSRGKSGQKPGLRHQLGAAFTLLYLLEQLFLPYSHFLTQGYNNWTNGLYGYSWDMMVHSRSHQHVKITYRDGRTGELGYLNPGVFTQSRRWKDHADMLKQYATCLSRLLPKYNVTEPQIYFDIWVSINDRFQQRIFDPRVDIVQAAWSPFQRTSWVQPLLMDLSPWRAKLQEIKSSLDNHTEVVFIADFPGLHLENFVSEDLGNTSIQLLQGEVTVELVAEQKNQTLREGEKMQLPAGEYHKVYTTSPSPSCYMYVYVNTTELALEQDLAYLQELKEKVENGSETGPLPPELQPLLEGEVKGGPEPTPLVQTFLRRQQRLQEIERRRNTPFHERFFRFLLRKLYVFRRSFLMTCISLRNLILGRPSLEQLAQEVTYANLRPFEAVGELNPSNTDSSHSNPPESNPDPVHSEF

Point of comparison: “propeptide of proline-rich Gla protein 1, RVFLTGEKANSILKRYPR (SEQ ID NO:5) (listed as Homo sapiens) [PRGP1]”, Ki 12.8 nM. Against it:
- consensus propeptide sequence AVFLSREQANQVLQRRRR (SEQ ID NO:1) (listed as Homo sapiens) — 30-fold lower, 0.43 nM
- propeptide of FVII, AVFVTQEEAHGVLHRRRR (SEQ ID NO:7); expressed free from plasmid pLN329 (listed as Homo sapiens) — within 1.5-fold, 11.1 nM
- propeptide of Matrix Gla Protein, NPFINRRNANTFISPQQR (SEQ ID NO:3) — 2.2-fold lower, 5.8 nM
- propeptide of Protein C, SVFSSSERAHQVLRIRKR (SEQ ID NO:9) (listed as Homo sapiens) — 18-fold higher, 230 nM
- propeptide of Protein S, ANFLSKQQASQVLVRKRR (SEQ ID NO:4) (listed as Homo sapiens) — within 1.5-fold, 12.2 nM
- propeptide of Prothrombin, HVFLAPQQARSLLQRVRR (SEQ ID NO:6) (listed as Homo sapiens) — 22-fold higher, 277 nM
- propeptide of factor X, SLFIRREQANNILARVTR (SEQ ID NO:2) (listed as Homo sapiens) — 4.9-fold lower, 2.6 nM
